According to paper PMC10905646 (Molecular psychiatry, 2023):

Target: T1, 6×His-tagged Kv3.1 T1 domain (His-31T1) (UniProt P25122 1-190)
T1 sequence (looked up): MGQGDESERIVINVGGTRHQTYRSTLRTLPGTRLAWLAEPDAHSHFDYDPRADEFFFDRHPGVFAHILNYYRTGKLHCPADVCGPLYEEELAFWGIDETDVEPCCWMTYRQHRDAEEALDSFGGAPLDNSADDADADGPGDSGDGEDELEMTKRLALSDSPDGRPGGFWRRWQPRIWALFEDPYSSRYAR
Test: SPR

Kd: 62.5 ± 18.4 nM
B1: GST-fused MAP6 Mn modules (GST-M115–221; aa 115–221 from MAP6N) (domain or fragment, UniProt Q63560 115-221, looked up)
chain: ADSVMRQDYRAWKVQRPEPSCRPRSEYQPSDAPFERETQYQKDFRAWPLPRRGDHPWIPKPVQIPATSQPSPPVLGMPKRRPQSQERGPIQLSADARDPEGAGGAGV
